Measurements: publication PMC9395280

Target: SARS-CoV-2 WT RBD protein (SARS-CoV-2, wild-type (ancestral)) (UniProt P0DTC2)
Experiment: SPR

## P2C-1F11-I27F (antibody)
  fold decrease of affinity against P2C-1F11: > 7 fold
